Paper PMC5817926 (2018)

Molecular target: ubiquitin polyprotein composed of nine identical repeats (Ubi)9 (UniProt P0CG48 1-76)
Experiment: extended unfolded state at 170 pN force (single-molecule force spectroscopy)

Chain of ubiquitin polyprotein composed of nine identical repeats (Ubi)9 (P0CG48 1-684): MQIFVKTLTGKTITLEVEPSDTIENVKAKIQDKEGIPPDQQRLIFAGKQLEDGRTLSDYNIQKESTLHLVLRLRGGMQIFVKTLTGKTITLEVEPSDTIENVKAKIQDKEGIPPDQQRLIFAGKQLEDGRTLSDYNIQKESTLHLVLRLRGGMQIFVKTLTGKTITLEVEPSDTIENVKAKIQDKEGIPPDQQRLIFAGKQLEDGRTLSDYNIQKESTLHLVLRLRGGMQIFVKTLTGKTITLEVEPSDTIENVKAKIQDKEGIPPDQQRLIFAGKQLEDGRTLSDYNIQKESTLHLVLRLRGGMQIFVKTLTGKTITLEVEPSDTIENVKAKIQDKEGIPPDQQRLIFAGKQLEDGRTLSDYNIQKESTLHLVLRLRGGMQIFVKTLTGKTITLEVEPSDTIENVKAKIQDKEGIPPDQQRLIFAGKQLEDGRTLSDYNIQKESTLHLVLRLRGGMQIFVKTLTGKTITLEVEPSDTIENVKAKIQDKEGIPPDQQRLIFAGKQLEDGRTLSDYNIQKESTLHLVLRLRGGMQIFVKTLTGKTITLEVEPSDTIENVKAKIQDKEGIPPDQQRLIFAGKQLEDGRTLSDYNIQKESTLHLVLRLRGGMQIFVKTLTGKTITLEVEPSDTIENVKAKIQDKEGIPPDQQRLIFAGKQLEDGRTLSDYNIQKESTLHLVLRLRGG

koff: 0.0458 s⁻¹
B1: DnaJ (Hsp40) (natural protein)
chain: MAKQDYYEILGVSKTAEEREIRKAYKRLAMKYHPDRNQGDKEAEAKFKEIKEAYEVLTDSQKRAAYDQYGHAAFEQGGMGGGGFGGGADFSDIFGDVFGDIFGGGRGRQRAARGADLRYNMELTLEEAVRGVTKEIRIPTLEECDVCHGSGAKPGTQPQTCPTCHGSGQVQMRQGFFAVQQTCPHCQGRGTLIKDPCNKCHGHGRVERSKTLSVKIPAGVDTGDRIRLAGEGEAGEHGAPAGDLYVQVQVKQHPIFEREGNNLYCEVPINFAMAALGGEIEVPTLDGRVKLKVPGETQTGKLFRMRGKGVKSVRGGAQGDLLCRVVVETPVGLNERQKQLLQELQESFGGPTGEHNSPRSKSFFDGVKKFFDDLTR
